Reference: patent publication US20010044939A1, “Small subunit of plant acetolactate synthase” (priority 2000, published 2001)

Assays:
[1] = system: Nicotiana plumbaginifolia acetolactate synthase (ALS) holoenzyme: N. plumbaginifolia LSU (encoded by pMTDRALS; ALS10 cDNA SEQ ID NO:42, predicted polypeptide …); assay: Inhibition of reconstituted plant ALS holoenzyme by herbicides (acetoin detection, microtiter plate); format: biochemical; details: holoenzyme (LSU + GST-SSU, thrombin cleaved); sodium pyruvate started (10 μL of 500 mM per well); pH 7.6; 37° C., 30 min; read-out: I50
Procedure: The plasmid pSSU Bbs/Bam was digested to completion with Bbs I and Xho I and the digestion products were separated by electrophoresis using a […] agarose gel and the 1.35 kbp Bbs I/Xho I fragment was recovered from the gel. Three hundred ng of this DNA was ligated with 1 μg of the plasmid pGEX-2TM that had been digested to completion with BamH I and Xho I and dephosphorylated as described above. The ligation reaction was diluted five fold with H2O and used to transform competent Max Efficiency E. coli DH5α as described above. […] This plasmid was designated pGEX-SSU.
The plasmid ALS10 that contains a full length cDNA copy of the Nicotiana plumbaginifolia ALS gene in the plasmid vector pBluescript was used as the source of the ALS coding region for pMTDRALS. The sequence of this cDNA is shown in SEQ ID NO:42. ALS10 was digested to completion with Xho I and Eco0109I, and the digestion products were separated by agarose gel electrophoresis. […] The plates were incubated overnight at 37° C. and plasmids isolated from kanamycin-resistant bacterial colonies were analyzed for the presence of the insert encoding the ALS large subunit by double digestion with Nde I and Xho I. One such plasmid, designated pMTDRALS was then transformed into E. coli BL21(DE3) using methods known to those skilled in the art. […]

[2] = target: GST-LSU: A. thaliana ALS large subunit expressed as a glutathione-S-transferase fusion protein from plasmid pGEX-OCM2 (Arabidopsis thaliana) (UniProt P17597); assay: cell-based or functional assay
[3] = target: N. plumbaginifolia ALS large subunit from plasmid pMTDRALS (Nicotiana plumbaginifolia); assay: cell-based or functional assay
[4] = target: free Arabidopsis thaliana ALS large subunit released from GST-LSU by thrombin (Arabidopsis thaliana) (UniProt P17597); assay: cell-based or functional assay

Specific Activity before thrombin addition (units/mg LSU), ALS enzyme assay [2] [units/mg LSU] | Specific Activity before thrombin addition (units/mg LSU), ALS enzyme assay [3] [units/mg LSU] | Specific Activity after thrombin addition (units/mg LSU), ALS enzyme assay [3] [units/mg LSU] | Specific Activity after thrombin addition (units/mg LSU), ALS enzyme assay [4] [units/mg LSU] | Compound | IC50 [1] [nM] | also measured
0.9 | 5.5 | – | – | Trx-HIS/SSU: N. plumbaginifolia acetolactate synthase small subunit expressed as a thioredoxin fusion from plasmid pTrx-HIS/SSU (from UniProt P0AA25 1-109) | – | fold increase in specific activity (sample 2 against sample 1, before thrombin) [2]: 3 fold; fold increase in specific activity (sample 4 against sample 3, before thrombin) [3]: 5 fold
0.3 | 1.1 | 0.4 | 0.04 | bovine serum albumin (from UniProt P02769 25-607) | – | –
– | – | 6.5 | 1.1 | free N. plumbaginifolia ALS small subunit released from Trx-HIS/SSU by thrombin | – | fold increase in specific activity (sample 2 against sample 1, after thrombin) [4]: > 20 fold

More lines, now with the values behind:

Compound | Specific Activity before thrombin addition (units/mg LSU), ALS enzyme assay [2] [units/mg LSU] | Specific Activity before thrombin addition (units/mg LSU), ALS enzyme assay [3] [units/mg LSU] | Specific Activity after thrombin addition (units/mg LSU), ALS enzyme assay [3] [units/mg LSU] | Specific Activity after thrombin addition (units/mg LSU), ALS enzyme assay [4] [units/mg LSU] | IC50 [1] [nM] | also measured
CC(C)C1(C)N=C(c2nc3ccccc3cc2C(=O)O)NC1=O (stereo not shown) [imazequin] | – | – | – | – | 800 | –
CCc1cnc(C2=NC(C)(C(C)C)C(=O)N2)c(C(=O)O)c1 (stereo not shown) [imezethapyr] | – | – | – | – | 4000 | –
